This is an account of results in US20250188166A1 (BRIGHT PEAK THERAPEUTICS, published 2025).

B1: IL-18 polypeptide SEQ ID NO: 30 (E6K, V11I, C38A, K53A, T63A, C76A, C127A) (ligand)
chain: YFGKLKSKLSIIRNLNDQVLFIDQGNRPLFEDMTDSDARDNAPRTIFIISMYADSQPRGMAVAISVKCEKISTLSAENKIISFKEMNPPDNIKDTKSDIIFFQRSVPGHDNKMQFESSSYEGYFLAAEKERDLFKLILKKEDELGDRSIMFTVQNED
notes: also called C086; IL-18 variant
B2: Pembrolizumab/Keytruda (antibody, human IgG4 S228P, kappa)
heavy: not shown
light: EIVLTQSPATLSLSPGERATLSCRASKGVSTSGYSYLHWYQQKPGQAPRLLIYLASYLESGVPARFSGSGSGTDFTLTISSLEPEDFAVYYCQHSRDLPLTFGGGTKVEIKRTVAAPSVFIFPPSDEQLKSGTASVVCLLNNFYPREAKVQWKVDNALQSGNSQESVTEQDSKDSTYSLSSTLTLSKADYEKHKVYACEVTHQGLSSPVTKSFNRGEC
notes: also called Lambrolizumab; MK-3475
B3: IL-18 polypeptide C163 (ligand)
chain: B1 chain with K6E, A53K, A63T, Q103K
B4: IL-18 polypeptide SEQ ID NO: 54 (E06K, K53A, C38S, C68S, C76S, C127S, K70C) (ligand)
chain: B1 chain with I11V, A38S, A63T, C68S, K70C, A76S, A127S
B5: IL-18 polypeptide C165 (ligand)
chain: B1 chain with K6E, A53K, S55R, A63T
B6: IL-18 polypeptide C177 (ligand)
chain: B1 chain with I49R
B7: IL-18 polypeptide SEQ ID NO: 62 (E6K, C38A, K53A, C127A) (ligand)
chain: B1 chain with I11V, A63T, A76C
B8: IL-18 polypeptide C179 (ligand)
chain: B1 chain with K8E, Q103R
B9: IL-18 polypeptide C168 (ligand)
chain: B1 chain with K6E, A53K, A63T, S105K
B10: IL-18 polypeptide SEQ ID NO: 34 (E06K, K53A, S55A) (ligand)
chain: B1 chain with I11V, A38C, S55A, A63T, A76C, A127C
B11: IL-18 polypeptide C167 (ligand)
chain: B1 chain with K6E, A53K, A63T, S105I
B12: IL-18 polypeptide C176 (ligand)
chain: B1 chain with I49M
B13: IL-18 polypeptide SEQ ID NO: 42 (E06K, K53A, S55A, T63A) (ligand)
chain: B1 chain with I11V, A38C, S55A, A76C, A127C
B14: IL-18 polypeptide C181 (ligand)
chain: B1 chain with V153E
B15: IL-18 polypeptide C164 (ligand)
chain: B1 chain with K6E, A53K, S55H, A63T
B16: IL-18 polypeptide SEQ ID NO: 56 (E6K, K53A, C38S, C76S, C127S) (ligand)
chain: B1 chain with I11V, A38S, A63T, A76S, A127S
B17: IL-18 polypeptide SEQ ID NO: 50 (E06K, K53A, T63A) (ligand)
chain: B1 chain with I11V, A38C, A76C, A127C
B18: IL-18 polypeptide C174 (ligand)
chain: B1 chain with K8L
B19: IL-18 polypeptide SEQ ID NO: 59 (E6K, C38A, K53A) (ligand)
chain: B1 chain with I11V, A63T, A76C, A127C
B20: IL-18 polypeptide C182 (ligand)
chain: B1 chain with V153Y
B21: IL-18 polypeptide C184 (ligand)
chain: B1 chain with K6R
B22: IL-18 polypeptide C178 (ligand)
chain: B1 chain with Q103R
B23: IL-18 polypeptide SEQ ID NO: 57 (E6K, C38S, K53A) (ligand)
chain: B1 chain with I11V, A38S, A63T, A76C, A127C
B24: IL-18 polypeptide C183 (SEQ ID NO: 69) (ligand)
chain: B1 chain with M51G
B25: IL-18 polypeptide C166 (ligand)
chain: B1 chain with K6E, A53K, S55T, A63T
B26: IL-18 polypeptide SEQ ID NO: 60 (E6K, C38Q, K53A) (ligand)
chain: B1 chain with I11V, A38Q, A63T, A76C, A127C
B27: IL-18 polypeptide C140 (SEQ ID NO: 72) (ligand)
chain: GGGGYFGKLKSKLSIIRNLNDQVLFIDQGNRPLFEDMTDSDARDNAPRTIFIISMYADSQPRGMAVAISVKCEKISTLSAENKIISFKEMNPPDNIKDTKSDIIFFQRSVPGHDNKMQFESSSYEGYFLAAEKERDLFKLILKKEDELGDRSIMFTVQNED
B28: IL-18 polypeptide C141 (SEQ ID NO: 71) (ligand)
chain: GYFGKLKSKLSIIRNLNDQVLFIDQGNRPLFEDMTDSDARDNAPRTIFIISMYADSQPRGMAVAISVKCEKISTLSAENKIISFKEMNPPDNIKDTKSDIIFFQRSVPGHDNKMQFESSSYEGYFLAAEKERDLFKLILKKEDELGDRSIMFTVQNED
B29: IL-18 polypeptide C192 (SEQ ID NO: 70) (ligand)
chain: B28 chain with M52G

Residue numbers refer to the chain shown, from its start. Numbers in names are those of the source. Where “and” joins values, the source holds several entries; their conditions need not be identical. Identical values can stand only once.

The target in one experiment is T1, His-tagged human IL-18BP (human, UniProt O95998 31-194, limits assumed).
T1 construct: also called human IL-18BP-His
T1 sequence (looked up): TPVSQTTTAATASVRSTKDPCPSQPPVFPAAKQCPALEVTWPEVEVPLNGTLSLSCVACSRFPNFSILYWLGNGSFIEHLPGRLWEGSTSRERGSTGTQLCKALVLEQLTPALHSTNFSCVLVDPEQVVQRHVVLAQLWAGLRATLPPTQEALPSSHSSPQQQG
Nature of the experiment: AlphaLISA of free IL-18BP: IL-18 analyte titrated in the presence of 5 ng/ml His-tagged human IL-18BP; loss of free IL-18BP signal. In general terms: Alpha assays give light when donor and acceptor beads are brought close together.
Consider B1, for which the “IC50 (read off the curve)” value is roughly 9000 pM.

In the next experiment the target is T2, recombinant biotinylated human FcRn (human, UniProt P55899 24-297; P61769 21-119, limits assumed, biotinylated).
T2 construct: Kit reagent; also called human neonatal Fc receptor
In words: AlphaLISA competition at pH 6: test antibody titrated against human IgG acceptor beads for biotinylated human FcRn on streptavidin donor beads; normalized signal.
Turning to B2, the “IC50 (read off the curve)” value is roughly 8000 pM.

In the next experiment the target is T3, IL-18R on HEK-Blue IL18R reporter cells (UniProt Q13478 19-541; O95256 20-599).
T3 sequence (looked up) 1: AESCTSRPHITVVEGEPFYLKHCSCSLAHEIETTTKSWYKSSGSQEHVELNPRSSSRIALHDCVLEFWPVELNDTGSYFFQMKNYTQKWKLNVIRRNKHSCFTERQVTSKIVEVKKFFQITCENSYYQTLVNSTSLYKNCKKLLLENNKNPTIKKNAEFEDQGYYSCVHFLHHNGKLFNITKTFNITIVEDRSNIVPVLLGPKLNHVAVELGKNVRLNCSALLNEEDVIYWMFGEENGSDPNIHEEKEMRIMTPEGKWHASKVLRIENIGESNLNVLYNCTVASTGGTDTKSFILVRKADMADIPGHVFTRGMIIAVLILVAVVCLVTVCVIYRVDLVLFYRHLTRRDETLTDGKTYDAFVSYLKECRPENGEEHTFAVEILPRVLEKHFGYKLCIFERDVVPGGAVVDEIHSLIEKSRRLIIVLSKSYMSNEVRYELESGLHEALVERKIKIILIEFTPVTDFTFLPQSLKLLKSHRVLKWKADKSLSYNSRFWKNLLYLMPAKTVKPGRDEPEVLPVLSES
T3 sequence (looked up) 2: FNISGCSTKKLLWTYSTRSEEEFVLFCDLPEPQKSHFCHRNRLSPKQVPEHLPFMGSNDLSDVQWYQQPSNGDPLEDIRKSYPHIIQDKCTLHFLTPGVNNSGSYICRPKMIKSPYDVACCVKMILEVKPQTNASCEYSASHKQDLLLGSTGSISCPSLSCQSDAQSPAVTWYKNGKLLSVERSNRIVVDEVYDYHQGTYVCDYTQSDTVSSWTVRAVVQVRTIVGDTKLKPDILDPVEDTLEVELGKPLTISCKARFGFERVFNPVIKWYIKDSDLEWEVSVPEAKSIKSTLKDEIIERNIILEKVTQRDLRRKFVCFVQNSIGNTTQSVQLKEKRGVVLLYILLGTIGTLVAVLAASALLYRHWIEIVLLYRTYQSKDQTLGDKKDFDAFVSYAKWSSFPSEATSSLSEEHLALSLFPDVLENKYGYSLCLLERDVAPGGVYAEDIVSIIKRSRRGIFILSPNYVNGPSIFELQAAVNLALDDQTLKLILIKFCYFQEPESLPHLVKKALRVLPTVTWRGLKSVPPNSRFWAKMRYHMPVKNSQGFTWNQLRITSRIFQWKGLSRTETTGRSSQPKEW
In words: cell-based or functional assay.
As a reminder, the EC50 (read off the curve) is the midpoint of the concentration-response curve. Lower therefore signals higher potency in that assay. For the molecule B1, the “EC50 (read off the curve)” value was roughly 0.05 pM.

A further experiment deals with T3, IL-18R on HEK-Blue IL18R reporter cells. In words: cell-based or functional assay. The source holds these as a separate data set.
In the case of B1, the “IL-18R Hek Blue assay EC50” value was 0.057 pM.

The target is the same in another experiment. Nature of the experiment: cell-based or functional assay. This is another data set of the same source.
B3: the “EC50, HEK-Blue IL18R SEAP reporter” value turned out to be 1.5 pM.

With B4, the “EC50, HEK-Blue IL18R SEAP reporter” value was determined as 9.12 pM.

In the case of B5, the “EC50, HEK-Blue IL18R SEAP reporter” value worked out at 1.91 pM.

B6: the “EC50, HEK-Blue IL18R SEAP reporter” value was determined as 0.04 pM.

In the case of B7, the “EC50, HEK-Blue IL18R SEAP reporter” value worked out at 0.17 pM.

As to B8, the “EC50, HEK-Blue IL18R SEAP reporter” value worked out at 0.4 pM.

Consider B9, for which the “EC50, HEK-Blue IL18R SEAP reporter” value is 7.73 pM.

Regarding B10, the “EC50, HEK-Blue IL18R SEAP reporter” value came to 272 pM.

Regarding B11, the “EC50, HEK-Blue IL18R SEAP reporter” value came out at 5.37 pM.

Take B12: the “EC50, HEK-Blue IL18R SEAP reporter” value is 0.07 pM.

Regarding B13, the “EC50, HEK-Blue IL18R SEAP reporter” value is 0.79 pM.

For B14, the “EC50, HEK-Blue IL18R SEAP reporter” value amounted to 0.1 pM.

In the case of B15, the “EC50, HEK-Blue IL18R SEAP reporter” value was found to be 3.14 pM.

Regarding B16, the “EC50, HEK-Blue IL18R SEAP reporter” value is 3.73 pM.

Turning to B17, the “EC50, HEK-Blue IL18R SEAP reporter” value stood at 1.77 pM.

Take B18: the “EC50, HEK-Blue IL18R SEAP reporter” value turned out to be 0.29 pM.

For B19, the “EC50, HEK-Blue IL18R SEAP reporter” value turned out to be 0.268 pM.

As to B20, the “EC50, HEK-Blue IL18R SEAP reporter” value amounted to 0.08 pM.

On to B1, for which the “EC50, HEK-Blue IL18R SEAP reporter” value was found to be 0.034 pM.

For B21, the “EC50, HEK-Blue IL18R SEAP reporter” value came out at 0.04 pM.

As to B22, the “EC50, HEK-Blue IL18R SEAP reporter” value turned out to be 0.26 pM.

With B23, the “EC50, HEK-Blue IL18R SEAP reporter” value was 0.86 pM and 0.53 pM.

On to B24, for which the “EC50, HEK-Blue IL18R SEAP reporter” value was found to be 0.1 pM.

With B25, the “EC50, HEK-Blue IL18R SEAP reporter” value is 4.73 pM.

For B26, the “EC50, HEK-Blue IL18R SEAP reporter” value turned out to be 0.203 pM.

B27: the “EC50, HEK-Blue IL18R SEAP reporter” value amounted to 2.5 pM.

For B28, the “EC50, HEK-Blue IL18R SEAP reporter” value worked out at 1.68 pM.

In the case of B29, the “EC50, HEK-Blue IL18R SEAP reporter” value turned out to be 14 pM.
